Legend:
[1] = molecular target: T1, Recombinant human Gal3 (rhGal3) (TrueBinding, #QC200361) (human, UniProt P17931 2-250); test: cell-based or functional assay
[2] = molecular target: T1, Recombinant human Gal3 (rhGal3) …; test: cell-based or functional assay; remark: listed apart in the source
Further: test concentration or dose not given here.

B1: F846TC.14E4 (antibody, human IgG4 S228P, kappa, V domains shown)
VH: QVTLKESGPGILQPSQTLSLTCSFSGFSLSTSGMGVGWIRQPSGKGLEWLAHIWWDDDKYYNTALKSGLTISKDASKNQVFLKIASMDTADTATYYCARNLYDGSYGYYAMDYWGQGTSVTVSS
VL: DIVMTQAAFSNPVTLGTSASISCRSSKSLLHTNGITFLYWYLQKPGQSPQPLIYQMSNLASGVPDRFSSSGSGTDFTLRISRVEAEDVGVYYCAQNLELPWTFGGGTKLEINR
In the case of B1, the “% inhibition of CD62L shedding” value [1] is reported as 90.3%, the “% inhibition of IL-6 secretion” value [2] is reported as 15.7% and the “% inhibition of TNFα secretion” value [2] is reported as 50.1%.

B2: 15F10.2D6 (antibody, mouse IgG2a, V domains shown)
VH: EVQLVESGGGLVKPGGSLKLSCAASGFAFSSYAMSWVRQTPEKRLEWVATISDGGVYTYYTDHVKGRFTISRDNAEDNLYLQMSHLKSEDTAMYYCVRDGGYWGQGTTLTVSS
VL: DVLMTQTPLSLPVSLGDQASISCRSSQSIVHNNGNTYLEWYLQKPGQSPKLLIYKVSNRFSGVPDRFSGSGSGTDFTLKISRVEAEDLGVYYCFQGSHVPLTFGGGTKLELKR
With B2 the “% inhibition of CD62L shedding” value [1] was 82.5%, the “% inhibition of IL-6 secretion” value [2] was 51.5% and the “% inhibition of TNFα secretion” value [2] was 73.5%.

B3: F849C.8D10 (antibody, human IgG4 S228P, kappa, V domains shown)
VH: QVQLQQTGAELVKPGASVKLSCKASGYTFTSYWINWVKQRPGQGLEWIGNIYPGSSSIYYSEKFKSKATLTVDTSSSTAYMQLSSLTSDDSAVYYCARWGYWGQGTTLTVSS
VL: DVLMTQTPLSLPVSLGDQASISCRSSQDIVHSSGNTYLEWYLQKPGQSLKLLIYKVSNRFSGVPDRFSASGSGTDFTLKISRVEAEDLGVYYCFQGSHVPPTFGSGTKLEIKR
With B3 the “% inhibition of CD62L shedding” value [1] was 180%, the “% inhibition of IL-6 secretion” value [2] was -75.8% and the “% inhibition of TNFα secretion” value [2] was -5.5%.

B4: 7D8.2D8 (antibody, mouse IgG2a, V domains shown)
VH: EVQLVESGGGLVKPGGSLKLSCAASGFTFSSYAMSWVRQTPEKRLEWVATISDGGIYTYYPDNVKGRFTISRDNAKNNLFLQMSHLKSEDTAMYYCVRDGGYWGQGTTLTVSS
VL: DVLMTQTPLSLPVSLGDQASISCRSSQSIVHSNGNTYLEWYLQKPGQSPKLLIYKVSNRFSGVPDRFSGSGSGTDFTLKISRVEAEDLGVYYCFQGSHVPLTFGAGTKLELKR
B4 was tested, and the “% inhibition of CD62L shedding” value [1] was 88.6%, the “% inhibition of IL-6 secretion” value [2] was 17.4% and the “% inhibition of TNFα secretion” value [2] was -11.5%.

B5: 3B11.2G2 (antibody, mouse IgG2a, V domains shown)
VH: QIQLVQSGPELKKPGETVKISCKTSGYKFKTYVMSWVKQAPGKALKWMGWINTYSGVPTYADDFKGRFAFSLETSASTAYLEIINLKNEDTATYFCARDGNYGDPMDYWGQGTSVTVSS
VL: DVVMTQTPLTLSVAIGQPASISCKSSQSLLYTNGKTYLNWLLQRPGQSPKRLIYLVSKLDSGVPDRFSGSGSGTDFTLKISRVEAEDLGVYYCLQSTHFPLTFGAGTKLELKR
For B5, the “% inhibition of CD62L shedding” value [1] was 92.7%, the “% inhibition of IL-6 secretion” value [2] was -4.6% and the “% inhibition of TNFα secretion” value [2] was 46.1%.

B6: 13A12.2E5 (antibody, mouse IgG2a, V domains shown)
VH: QIQLVQSGPELKKPGETVKISCKTSGYKFKTYVMSWVKQAPGKALKWMGWINTYSGVPTYADDFKGRFAFSLETSASTAYLEIINLKNEDTATYFCARDGNYGDPMDYWGQGTSVTVSS
VL: DVVMTQTPLTLSVAIGQPASISCKSSQSLLYTNGKTYLNWLLQRPGQSPKRLIYLLSKLDSGVPDRFSASGSGTDFTLKISRVEAEDLGVYYCLQSTHFPLTFGAGTKLEMKR
In the case of B6, the “% inhibition of CD62L shedding” value [1] is reported as 87.1%, the “% inhibition of IL-6 secretion” value [2] is reported as 39.4% and the “% inhibition of TNFα secretion” value [2] is reported as 61.8%.

B7: 15G7.2A7 (antibody, human IgG4 S228P, kappa, V domains shown)
VH: EVQLQQSGPELVKPGASVKISCKASGYTFTDYYMNWVKQSHGKSLEWIGDINPNNGGTNYNQKFKGKATLTVDKSSSTAYMELRSLTSEDSAVYYCTSGYGFPYWGQGTLVTVSA
VL: DIQMNQSPSSLSASLGDTISITCRASQNINIWLSWYQQKPGNIPQLLIYKASNLHTGVPSRFSGSGSGTDFTLTISSLQPEDIATYYCLQGQSYPLTFGAGTKLVMKR
B7 was tested, and the “% inhibition of CD62L shedding” value [1] was 110%, the “% inhibition of IL-6 secretion” value [2] was 31% and the “% inhibition of TNFα secretion” value [2] was 46.1%.

B8: 20D11.2C6 (antibody, mouse IgG2a, V domains shown)
VH: EVQLQQSGPELVKPGASVKISCKASGYTFTDFYINWVKQSHGKSLEWIGDINPKNGGINYNPKFKIKATLTVDKSSSTSYMDLRGLTSEDSAVYYCTSGYGFPYWGQGTLVTVSA
VL: DIQMNQSPSSLSASLGDTITITCRASQNIYIWLSWYQQKPGNIPKLLIYKASNLHTGVPSRFSGSGSGTDFTLTISTLQPEDIATYFCLQGQSYPLTFGAGTKLEMKR
With B8 the “% inhibition of CD62L shedding” value [1] was 89.4%, the “% inhibition of IL-6 secretion” value [2] was 43.7% and the “% inhibition of TNFα secretion” value [2] was 69.1%.

B9: 847.16D10 (antibody, V domains shown)
VH: QVQLQQSGAELVRPGASVKLSCKASGYTFTGYWLNWVKQRPGQGLEWIGMIDPSDSETHYNQVFKDKATMTVDRSSSTAYMQLSGLTSEDSAVYYCANSNYASGSWGQGTTLTVSS
VL: QAVVTQESALTTSPGETVTLTCRSSTGAVTTSNYANWDQEKPDHLFTGLIGGTNNRAPGVPARFSGSLIGDKAALTITGAQTEDEAIYFCALWYSNHLVFGGGTKVTVL
For B9, the “% inhibition of CD62L shedding” value [1] was 14.4%.

B10: 847.13E2-mH0mL1 (antibody, V domains shown)
VH: EVQLQQSGPELVKPGASVKVSCKASGYSFTDYNMYWVMQSHGKSLEWIGYIDPYNDATSYSQKFTGKATLTVDKSSSTAFMHLNSLTSEDSAVYYCARWGRYEYYAMDYWGQGTSVTVSS
VL: DIVMTQSPASLPVSLGQRATISCRASKSVTTSAYSYIHWYQQRPGQPPKLLIYLASNLESGVPARFSGSGSGTDFTLNIHPVEEEDAATYYCQHNRELPPTFGGGTKLEIN
For B10, the “% inhibition of CD62L shedding” value [1] was 79.9%.

B11: 847.13E2-mH0mL2 (antibody, V domains shown)
VH: EVQLQQSGPELVKPGASVKVSCKASGYSFTDYNMYWVMQSHGKSLEWIGYIDPYNDATSYSQKFTGKATLTVDKSSSTAFMHLNSLTSEDSAVYYCARWGRYEYYAMDYWGQGTSVTVSS
VL: DIVLTQSPATLSVTPGDSVSFSCRASQIINNNLHWYQQKSHESPRLLIRYTSQSISGIPSRFSGSGSGTDFTLSINNVETEDFGMYFCQQTNSWPLTFGAGTKLELK
B11 was tested, and the “% inhibition of CD62L shedding” value [1] was 18.8%.

B12: 14H10.2C9 (antibody, mouse IgG2a, V domains shown)
VH: QIQLVQSGPELKKPGETVKISCKASGYTFTTYGMGWVKQAPGKDLKWMGWINTYSGVPTYADDFKGRFAFSLETSASTAYLQISNLKNEDTATYFCSTPYEYDGAYWGQGTLVTVSA
VL: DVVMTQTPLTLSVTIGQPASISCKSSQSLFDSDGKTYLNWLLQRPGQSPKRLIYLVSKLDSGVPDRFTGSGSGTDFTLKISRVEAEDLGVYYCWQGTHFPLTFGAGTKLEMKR
With B12 the “% inhibition of CD62L shedding” value [1] was 86.3%, the “% inhibition of IL-6 secretion” value [2] was 55.6% and the “% inhibition of TNFα secretion” value [2] was 54%.

B13: 20H5.A3 (antibody, mouse IgG2a, V domains shown)
VH: QIQLVQSGPELKKPGESVKISCKASGYAFTTYGMSWVQQAPGKGLKWMGWVNTYSGVPTCADDFKGRFAFSLETSASTAYLQINNLRNEDTATYFCARGPYAMDYWGQGTSVTVSS
VL: DIQMTQTTSSLSASLGDRVTINCSASQDISNYLNWYQQKPDGTVKLLIYYTSSLLSGVPSRFSGSGSGTDYSLTISNLEPEDIATYFCQQYSKLPYTFGSGTHLEIKR
For B13, the “% inhibition of CD62L shedding” value [1] was 66.3%, the “% inhibition of IL-6 secretion” value [2] was 77.5% and the “% inhibition of TNFα secretion” value [2] was 60.8%.

B14: 23H9.2E4 (antibody, mouse IgG2a, V domains shown)
VH: QIQLVQSGPELKKPGETVKISCKASGYTFTTYAMSWVKQAPGKGLKWMGWINTYSGVPTYADDLKGRFAFSLETSASTAYLQINNLKNEDTATYFCARGPYAMDYWGQGTSVTVSS
VL: DIQMTQTTSSLSASLGDRVTISCSASQGINNYLNWYQQKPDGTVKLLIYYASSLHSGVPSRFSGSGSGTDYSLTISNLEPEDIATYYCQQYSQVPYTFGSGTKLEIKR
In the case of B14, the “% inhibition of CD62L shedding” value [1] is reported as 91.9%, the “% inhibition of IL-6 secretion” value [2] is reported as 92.6% and the “% inhibition of TNFα secretion” value [2] is reported as 100%.

B15: 849.2D7 (antibody, V domains shown)
VH: QVQLQQSGPQLVRPGASVKISCKASGYSFTNYWMHWVKQRPGQGLEWIGMIDPSDSETRLNQKFKDKATLTVDKSSSTAYMQLSSPTSEDSAVYYCATGRPDYWGQGTTLTVSS
VL: DIVMTQSHKFMSTSVGDRVSITCKASQDVSTAVAWYQQKPGQSPKLLIYWASTRHTGVPDRFTGSGSGTDYTLTISSVQAEDLALYYCQQHYSTPYTFGGGTKLEIK
With B15 the “% inhibition of CD62L shedding” value [1] was 78.1%, the “% inhibition of IL-6 secretion” value [2] was 39% and the “% inhibition of TNFα secretion” value [2] was 42.7%.

B16: 847.23F11 (antibody, V domains shown)
VH: QVQLQQSGAELVRPGASVKLSCKASGYTFTSSWMNWVKQRPGQGLDWIGMIDPSDSETHYNQMFKDKATLTVDKSSNTAYMQLSRLTSEDSAVYYCVNSNYESGYWGQGTTLTVSS
VL: DILMTQSHKFMSTSVGDRVSITCKASQDVSSVVVWYQQKPGQSPKQLIYWASTRHTGVPDRFTGSGSGTDYTLTISSVQAEDLALYYCQQHYSTPYTFGGGTKLEIK
With B16 the “% inhibition of CD62L shedding” value [1] was 15.2%.

B17: 2D10-VH0-VL0 (antibody, human IgG4 S228P, kappa, V domains shown)
VH: QVQLQQSGPELVKPGASVKISCKASGYTFTDYYINWVKQRPGQGLEWIGWIYPGSQDTKYNEKFKGKATLTVDTSSSTAYMQLGSLTSEDSAVYFCANYFGSSGWFFDVWGTGTTVTVSS
VL: DIVMTQAAFSNPVTLGTSASISCRSSKSLLHSDGITYLYWYLQRPGQSPQLLIYRMSNLASGVPDRFSGSGSGTDFTLRISRVEAEDVGVYYCAQMIEFPLTFGAGTILELKR
B17 was tested, and the “% inhibition of CD62L shedding” value [1] was 62.4%, the “% inhibition of IL-6 secretion” value [2] was 21.7% and the “% inhibition of TNFα secretion” value [2] was 39.6%.

B18: 849.5H1 (antibody, V domains shown)
VH: QVQLKESGPVLVAPSQSLSITCTVSGFSLTSYGIHWVRQPPGKGLEWLGVIWAGGSTNYNSALMSRLSISKDNSKSQVFLKMNSLQIDDTAMYYCAKPPHDYDQAWFAYWGQGTLITVSA
VL: DIQMNQSPSSLSASLGDTITITCHASQNINVWLSWYQQKPGNIPKLLIYQASNLHTGVPSRFSGRGSGTGFTLTISSLQPEDIATYYCQQGQSSPFTFGSGTKLEIK
In the case of B18, the “% inhibition of CD62L shedding” value [1] is reported as 87.5%.

B19: F846TC.7F10 (antibody, human IgG4 S228P, kappa, V domains shown)
VH: EVQLVESGGDLVKPGGSLKLSCAASGFTFSNYGLSWIRQTPDKRLEWVATISSGGSYTYYPDSVKGRFTISRDSAKNTLYLQMSSLKSEDTAMYYCARHAHYYGVSPYYFDYWGQGTCLTVSS
VL: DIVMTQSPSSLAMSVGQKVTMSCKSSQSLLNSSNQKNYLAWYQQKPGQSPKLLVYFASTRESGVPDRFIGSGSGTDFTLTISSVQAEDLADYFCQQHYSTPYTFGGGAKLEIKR
For B19, the “% inhibition of CD62L shedding” value [1] was 96.1%, the “% inhibition of IL-6 secretion” value [2] was -2.5% and the “% inhibition of TNFα secretion” value [2] was 72.3%.

B20: 6B3.2D3 (antibody, human IgG4 S228P, kappa, V domains shown)
VH: QVQLKQSGPGLVQPSQSLSITCTVSGFSLTSYGVHWVRQPPGKGLEWLGVIWSGGSTDYNAAFISRLSISKDNSKSQVFFKMNSLQADDTAIYYCAKGPYDYDLGWFAYWGQGTLVTVSA
VL: SIVMTQTPKFLLVSAGDRVTITCKASQSVSNDVAWYQQKPGQSPKLLIYYASNRYTGVPDRFTGSGYGTDFTFTISTVQAEDLAVYFCQQDYTSPYTFGGGTKLEIKR
For B20, the “% inhibition of CD62L shedding” value [1] was 98.9%, the “% inhibition of IL-6 secretion” value [2] was 0.2% and the “% inhibition of TNFα secretion” value [2] was -1.2%.

Source: patent US20250243282A1 (TRUEBINDING, published 2025)
